The test system of assay [1] is 3×MBT domain of L3MBTL1. The assay can be described thus: Triple SILAC pull-down, 3xMBT/3xMBTD355N ratio (cytoplasmic, nuclear and chromatin fractions of 293T cells).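 On all read-outs here: proteins quantified with MaxQuant, requiring at least two unique peptides and quantification in both label directions, normalized to the mean of proteins from a digested loading control.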 It counts as binding, human. Conditions: SILAC ratio 3xMBT vs 3xMBTD355N pull-down, 293T cells, all values in log base 2; for 3xMBT/D355N UNC Heavy: experiment with UNC0638 in heavy SILAC media; for 3xMBT/D355N UNC Light: experiment with UNC0638 in light SILAC media.

Assay [2] addresses T1, G9a and GLP (Homo sapiens, UniProt Q96KQ7+Q9H9B1).
T1 sequence (Q96KQ7 2-1210 limits assumed): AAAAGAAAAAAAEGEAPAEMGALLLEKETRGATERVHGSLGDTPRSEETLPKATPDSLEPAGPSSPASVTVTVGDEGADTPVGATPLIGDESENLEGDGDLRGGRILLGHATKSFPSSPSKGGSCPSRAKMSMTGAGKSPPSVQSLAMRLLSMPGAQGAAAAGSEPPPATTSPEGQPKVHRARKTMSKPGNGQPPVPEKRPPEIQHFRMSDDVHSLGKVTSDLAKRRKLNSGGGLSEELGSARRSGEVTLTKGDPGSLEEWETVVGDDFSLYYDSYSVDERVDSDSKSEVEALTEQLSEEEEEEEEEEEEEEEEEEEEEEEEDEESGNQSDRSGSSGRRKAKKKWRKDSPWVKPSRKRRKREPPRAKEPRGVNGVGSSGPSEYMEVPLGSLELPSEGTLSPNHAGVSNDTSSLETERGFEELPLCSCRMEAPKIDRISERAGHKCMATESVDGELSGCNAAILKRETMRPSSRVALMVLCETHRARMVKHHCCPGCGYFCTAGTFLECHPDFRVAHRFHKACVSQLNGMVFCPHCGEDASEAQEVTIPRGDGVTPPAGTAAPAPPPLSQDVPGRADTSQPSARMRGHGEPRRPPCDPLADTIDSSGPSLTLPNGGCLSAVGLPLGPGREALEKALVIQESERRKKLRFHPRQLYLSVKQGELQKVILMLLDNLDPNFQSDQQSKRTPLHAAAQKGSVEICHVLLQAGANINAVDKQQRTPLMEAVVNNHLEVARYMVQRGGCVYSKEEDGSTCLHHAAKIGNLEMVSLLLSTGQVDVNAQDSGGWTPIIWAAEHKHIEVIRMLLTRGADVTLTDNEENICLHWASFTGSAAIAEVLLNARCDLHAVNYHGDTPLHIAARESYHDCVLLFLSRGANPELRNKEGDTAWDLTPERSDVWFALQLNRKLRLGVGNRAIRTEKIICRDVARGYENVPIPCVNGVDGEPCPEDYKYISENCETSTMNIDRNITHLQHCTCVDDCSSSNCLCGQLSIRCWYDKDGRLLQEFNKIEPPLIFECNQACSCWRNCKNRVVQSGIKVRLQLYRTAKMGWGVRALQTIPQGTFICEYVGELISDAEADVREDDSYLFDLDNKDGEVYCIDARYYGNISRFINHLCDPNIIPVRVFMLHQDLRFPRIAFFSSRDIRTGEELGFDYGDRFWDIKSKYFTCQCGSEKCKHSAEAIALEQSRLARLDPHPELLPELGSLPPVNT
T1 sequence (Q9H9B1 2-1298 limits assumed): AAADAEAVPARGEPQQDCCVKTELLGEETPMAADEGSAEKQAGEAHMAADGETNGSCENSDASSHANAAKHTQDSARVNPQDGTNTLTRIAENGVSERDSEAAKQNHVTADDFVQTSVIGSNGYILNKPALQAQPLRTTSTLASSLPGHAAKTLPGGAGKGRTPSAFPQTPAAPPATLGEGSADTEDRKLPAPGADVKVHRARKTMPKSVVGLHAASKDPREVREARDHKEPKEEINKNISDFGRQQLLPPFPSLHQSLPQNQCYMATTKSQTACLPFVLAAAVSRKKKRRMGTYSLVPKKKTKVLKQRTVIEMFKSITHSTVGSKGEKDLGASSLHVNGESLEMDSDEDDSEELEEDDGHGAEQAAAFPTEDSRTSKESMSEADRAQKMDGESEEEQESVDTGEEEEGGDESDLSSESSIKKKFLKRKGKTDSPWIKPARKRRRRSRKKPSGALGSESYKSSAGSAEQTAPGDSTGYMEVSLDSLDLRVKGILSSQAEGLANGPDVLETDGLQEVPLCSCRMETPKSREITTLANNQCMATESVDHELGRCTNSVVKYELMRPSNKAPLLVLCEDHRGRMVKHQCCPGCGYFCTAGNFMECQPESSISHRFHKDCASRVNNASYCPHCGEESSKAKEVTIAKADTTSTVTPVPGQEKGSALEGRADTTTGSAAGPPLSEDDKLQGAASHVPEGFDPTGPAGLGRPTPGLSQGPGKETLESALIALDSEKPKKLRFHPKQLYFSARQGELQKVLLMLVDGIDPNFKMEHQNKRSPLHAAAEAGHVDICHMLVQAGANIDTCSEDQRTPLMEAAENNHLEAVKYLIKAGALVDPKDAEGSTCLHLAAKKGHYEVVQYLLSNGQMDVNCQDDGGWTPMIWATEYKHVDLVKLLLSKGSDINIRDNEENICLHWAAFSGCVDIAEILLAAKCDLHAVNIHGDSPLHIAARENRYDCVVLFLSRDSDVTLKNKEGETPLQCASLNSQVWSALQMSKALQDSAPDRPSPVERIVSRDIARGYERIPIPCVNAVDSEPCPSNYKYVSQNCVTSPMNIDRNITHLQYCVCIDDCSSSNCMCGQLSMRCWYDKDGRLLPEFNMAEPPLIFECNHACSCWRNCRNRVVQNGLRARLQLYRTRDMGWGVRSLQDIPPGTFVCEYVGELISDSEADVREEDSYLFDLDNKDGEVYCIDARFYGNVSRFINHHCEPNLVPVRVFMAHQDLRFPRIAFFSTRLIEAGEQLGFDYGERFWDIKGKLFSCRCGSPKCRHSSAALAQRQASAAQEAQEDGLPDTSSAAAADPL
The assay can be described thus: Triple SILAC pull-down after UNC0638 treatment of 293T cells, DMSO/UNC0638 ratio of protein captured by 3×MBT.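 On all read-outs here: mass spectrometry (Q-Exactive) SILAC quantitation, DMSO/UNC0638 ratio computed after subtracting 3×MBTD355N mutant pull-down background, only proteins with at least twofold 3×MBT over mutant signal considered.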 The note with it: all values in log base 2; for Relative to UNC0638 UNC Heavy / Relative to UNC0638 UNC Light: SILAC ratio DMSO relative to UNC0638, pull-down with 3xMBT; for Relative to UNC0638 UNC Heavy: UNC0638 in heavy SILAC media; for Relative to UNC0638 UNC Light: UNC0638 in light SILAC media; for Relative to UNC0638 Average: average of UNC Light and UNC Heavy experiments. Details: endogenous in cells; host or cells: HEK 293T. The assay is classed as cell-based.

Data on three molecules can be found in US20140274782A1, “AFFINITY REAGENTS AND METHODS FOR DETECTION, PURIFICATION, AND PROTEOMIC ANALYSIS OF METHYLATED PROTEINS” (The Board of Trustees of the Leland Stanford Junior …, priority 2013, published 2014).

B1: GTPBP1 (protein, UniProt O00178 1-669, looked up)
GTP-binding protein 1: MATERSRSAMDSPVPASMFAPEPSSPGAARAAAAAARLHGGFDSDCSEDGEALNGEPELDLTSKLVLVSPTSEQYDSLLRQMWERMDEGCGETIYVIGQGSDGTEYGLSEADMEASYATVKSMAEQIEADVILLRERQEAGGRVRDYLVRKRVGDNDFLEVRVAVVGNVDAGKSTLLGVLTHGELDNGRGFARQKLFRHKHEIESGRTSSVGNDILGFDSEGNVVNKPDSHGGSLEWTKICEKSTKVITFIDLAGHEKYLKTTVFGMTGHLPDFCMLMVGSNAGIVGMTKEHLGLALALNVPVFVVVTKIDMCPANILQETLKLLQRLLKSPGCRKIPVLVQSKDDVIVTASNFSSERMCPIFQISNVTGENLDLLKMFLNLLSPRTSYREEEPAEFQIDDTYSVPGVGTVVSGTTLRGLIKLNDTLLLGPDPLGNFLSIAVKSIHRKRMPVKEVRGGQTASFALKKIKRSSIRKGMVMVSPRLNPQASWEFEAEILVLHHPTTISPRYQAMVHCGSIRQTATILSMDKDCLRTGDKATVHFRFIKTPEYLHIDQRLVFREGRTKAVGTITKLLQTTNNSPMNSKPQQIKMQSTKKGPLTKRDEGGPSGGPAVGAPPPGDEASSVGAGQPAASSNLQPQPKPSSGGRRRGGQRHKVKSQGACVTPASGC
For B1, in assay [1], the “3xMBT/D355N UNC Heavy” value is listed as −0.64 log base 2 and the “3xMBT/D355N UNC Light” value was 1.80 log base 2. In addition, in assay [2], the “Relative to UNC0638 UNC Heavy” value is −0.27 log base 2, the “Relative to UNC0638 UNC Light” value worked out at 0.13 log base 2 and the “Relative to UNC0638 Average” value was −0.07 log base 2.

B2: SMC1A (protein, UniProt Q14683 1-1233, looked up)
Structural maintenance of …: MGFLKLIEIENFKSYKGRQIIGPFQRFTAIIGPNGSGKSNLMDAISFVLGEKTSNLRVKTLRDLIHGAPVGKPAANRAFVSMVYSEEGAEDRTFARVIVGGSSEYKINNKVVQLHEYSEELEKLGILIKARNFLVFQGAVESIAMKNPKERTALFEEISRSGELAQEYDKRKKEMVKAEEDTQFNYHRKKNIAAERKEAKQEKEEADRYQRLKDEVVRAQVQLQLFKLYHNEVEIEKLNKELASKNKEIEKDKKRMDKVEDELKEKKKELGKMMREQQQIEKEIKEKDSELNQKRPQYIKAKENTSHKIKKLEAAKKSLQNAQKHYKKRKGDMDELEKEMLSVEKARQEFEERMEEESQSQGRDLTLEENQVKKYHRLKEEASKRAATLAQELEKFNRDQKADQDRLDLEERKKVETEAKIKQKLREIEENQKRIEKLEEYITTSKQSLEEQKKLEGELTEEVEMAKRRIDEINKELNQVMEQLGDARIDRQESSRQQRKAEIMESIKRLYPGSVYGRLIDLCQPTQKKYQIAVTKVLGKNMDAIIVDSEKTGRDCIQYIKEQRGEPETFLPLDYLEVKPTDEKLRELKGAKLVIDVIRYEPPHIKKALQYACGNALVCDNVEDARRIAFGGHQRHKTVALDGTLFQKSGVISGGASDLKAKARRWDEKAVDKLKEKKERLTEELKEQMKAKRKEAELRQVQSQAHGLQMRLKYSQSDLEQTKTRHLALNLQEKSKLESELANFGPRINDIKRIIQSREREMKDLKEKMNQVEDEVFEEFCREIGVRNIREFEEEKVKRQNEIAKKRLEFENQKTRLGIQLDFEKNQLKEDQDKVHMWEQTVKKDENEIEKLKKEEQRHMKIIDETMAQLQDLKNQHLAKKSEVNDKNHEMEEIRKKLGGANKEMTHLQKEVTAIETKLEQKRSDRHNLLQACKMQDIKLPLSKGTMDDISQEEGSSQGEDSVSGSQRISSIYAREALIEIDYGDLCEDLKDAQAEEEIKQEMNTLQQKLNEQQSVLQRIAAPNMKAMEKLESVRDKFQETSDEFEAARKRAKKAKQAFEQIKKERFDRFNACFESVATNIDEIYKALSRNSSAQAFLGPENPEEPYLDGINYNCVAPGKRFRPMDNLSGGEKTVAALALLFAIHSYKPAPFFVLDEIDAALDNTNIGKVANYIKEQSTCNFQAIVISLKEEFYTKAESLIGVYPEQGDCVISKVLTFDLTKYPDANPNPNEQ
As to B2, in assay [1], the “3xMBT/D355N UNC Heavy” value is 1.31 log base 2 and the “3xMBT/D355N UNC Light” value is reported as 1.83 log base 2. In assay [2], the “Relative to UNC0638 UNC Heavy” value is given as −0.05 log base 2, the “Relative to UNC0638 UNC Light” value was −0.01 log base 2 and the “Relative to UNC0638 Average” value is −0.03 log base 2.

B3: DDX49 (protein, UniProt Q9Y6V7 1-483, looked up)
Probable ATP-dependent RNA …: MAGFAELGLSSWLVEQCRQLGLKQPTPVQLGCIPAILEGRDCLGCAKTGSGKTAAFVLPILQKLSEDPYGIFCLVLTPTRELAYQIAEQFRVLGKPLGLKDCIIVGGMDMVAQALELSRKPHVVIATPGRLADHLRSSNTFSIKKIRFLVMDEADRLLEQGCTDFTVDLEAILAAVPARRQTLLFSATLTDTLRELQGLATNQPFFWEAQAPVSTVEQLDQRYLLVPEKVKDAYLVHLIQRFQDEHEDWSIIIFTNTCKTCQILCMMLRKFSFPTVALHSMMKQKERFAALAKFKSSIYRILIATDVASRGLDIPTVQVVINHNTPGLPKIYIHRVGRTARAGRQGQAITLVTQYDIHLVHAIEEQIKKKLEEFSVEEAEVLQILTQVNVVRRECEIKLEAAHFDEKKEINKRKQLILEGKDPDLEAKRKAELAKIKQKNRRFKEKVEETLKRQKAGRAGHKGRPPRTPSGSHSGPVPSQGLV
As to B3, in assay [1], the “3xMBT/D355N UNC Heavy” value turned out to be 3.17 log base 2 and the “3xMBT/D355N UNC Light” value was found to be 1.77 log base 2. Moreover, in assay [2], the “Relative to UNC0638 UNC Heavy” value is 0.43 log base 2, the “Relative to UNC0638 UNC Light” value is given as −0.49 log base 2 and the “Relative to UNC0638 Average” value is given as −0.03 log base 2.
